Data as given in the supplement of paper PMC9112550, “Optimization of the antimicrobial peptide Bac7 by deep mutational scanning” (BMC Biology, 2022).

Tested on: Escherichia coli TOP10
Test: shrunken log2 fold change of peptide-encoding DNA abundance (4.5 h post-induction vs induction); higher = less antimicrobial activity (less host growth inhibition)
Settings: time post-induction: 4.5 h; library: site-saturation at positions 5, 18, 19, 20
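Further: peptides expressed intracellularly from a pBAD plasmid library in pooled LB shake-flask culture, induced with 0.3% L-arabinose, DNA abundance read by NGS, three biological replicates, DESeq2 with apeglm shrinkage.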

| Sequence | shrunken log2 fold change |
| --- | --- |
| RRIRRRPPRLPRPRPRPDFKPRP | 0.151 |
| RRIRQRPPRLPRPRPRPGQAPRP | 0.0026 |
| RRIRVRPPRLPRPRPRPIIDPRP | 0.0493 |
| RRIRNRPPRLPRPRPRPGYNPRP | -0.198 |
| RRIRIRPPRLPRPRPRPIFTPRP | 0.0285 |
| RRIRWRPPRLPRPRPRPSPRPRP | 0.299 |
| RRIRIRPPRLPRPRPRPFSSPRP | -0.181 |
| RRIRERPPRLPRPRPRPHKTPRP | 0.0137 |
| RRIRMRPPRLPRPRPRPAEQPRP | 0.395 |
| RRIRFRPPRLPRPRPRPVEFPRP | -0.591 |
| RRIRMRPPRLPRPRPRPKHWPRP | 0.91 |
| RRIRCRPPRLPRPRPRPGPYPRP | -0.385 |
| RRIRERPPRLPRPRPRPATVPRP | -0.2 |
| RRIRIRPPRLPRPRPRPFVFPRP | -0.356 |
| RRIRPRPPRLPRPRPRPWPLPRP | 0.185 |
| RRIRSRPPRLPRPRPRPEQMPRP | -0.0112 |
| RRIRVRPPRLPRPRPRPIDHPRP | -0.152 |
| RRIRWRPPRLPRPRPRPEVVPRP | -0.0122 |
| RRIRTRPPRLPRPRPRPNWNPRP | -0.335 |
| RRIRPRPPRLPRPRPRPWACPRP | -0.00713 |
| RRIRNRPPRLPRPRPRPHFIPRP | 0.121 |
| RRIRPRPPRLPRPRPRPNDAPRP | -0.025 |
| RRIRMRPPRLPRPRPRPEYHPRP | -0.00495 |
| RRIRHRPPRLPRPRPRPAADPRP | 0.274 |
| RRIRMRPPRLPRPRPRPNWSPRP | -0.18 |

| Sequence | shrunken log2 fold change |
| --- | --- |
| RRIRSRPPRLPRPRPRPWVGPRP | -0.452 |
| RRIRRRPPRLPRPRPRPQTDPRP | 0.13 |
| RRIRGRPPRLPRPRPRPKTFPRP | 0.292 |
| RRIRPRPPRLPRPRPRPTACPRP | 0.338 |
| RRIRNRPPRLPRPRPRPTGLPRP | 0.0817 |
| RRIRERPPRLPRPRPRPGHWPRP | 0.0159 |
| RRIRCRPPRLPRPRPRPNDIPRP | -0.762 |
| RRIRDRPPRLPRPRPRPGGEPRP | 1.41 |
| RRIRDRPPRLPRPRPRPERPPRP | 0.0268 |
| RRIRLRPPRLPRPRPRPKVNPRP | 0.0232 |
| RRIRCRPPRLPRPRPRPYANPRP | -0.0471 |
| RRIRYRPPRLPRPRPRPTREPRP | -0.145 |
| RRIRPRPPRLPRPRPRPMYSPRP | -0.386 |
| RRIRLRPPRLPRPRPRPQPSPRP | 0.169 |
| RRIRARPPRLPRPRPRPWMEPRP | -0.0866 |
| RRIRVRPPRLPRPRPRPKYYPRP | -0.921 |
| RRIRKRPPRLPRPRPRPQSAPRP | 0.319 |
| RRIRHRPPRLPRPRPRPKTKPRP | 0.0995 |
| RRIRYRPPRLPRPRPRPLIQPRP | -0.559 |
| RRIRFRPPRLPRPRPRPVCMPRP | -0.498 |
| RRIRYRPPRLPRPRPRPVRYPRP | -0.157 |
| RRIRERPPRLPRPRPRPWCEPRP | -0.349 |
| RRIRMRPPRLPRPRPRPIMRPRP | 0.537 |
| RRIRIRPPRLPRPRPRPWQAPRP | -0.115 |
| RRIRFRPPRLPRPRPRPFFRPRP | -0.213 |

| Sequence | shrunken log2 fold change |
| --- | --- |
| RRIRNRPPRLPRPRPRPNRHPRP | -0.17 |
| RRIRDRPPRLPRPRPRPNICPRP | 0.153 |
| RRIRARPPRLPRPRPRPFDHPRP | -0.394 |
| RRIRGRPPRLPRPRPRPCEAPRP | 0.838 |
| RRIRLRPPRLPRPRPRPCMIPRP | -0.21 |
| RRIRLRPPRLPRPRPRPTQTPRP | -0.0101 |
| RRIRFRPPRLPRPRPRPHLGPRP | 0.0424 |
| RRIRGRPPRLPRPRPRPNHRPRP | 0.00454 |
| RRIRTRPPRLPRPRPRPCLFPRP | -0.16 |
| RRIRPRPPRLPRPRPRPPYAPRP | 0.193 |
| RRIRIRPPRLPRPRPRPQTFPRP | -0.156 |
| RRIRCRPPRLPRPRPRPPFCPRP | 0.291 |
| RRIRNRPPRLPRPRPRPQVVPRP | 0.0145 |
| RRIRYRPPRLPRPRPRPMDTPRP | -0.216 |
| RRIRMRPPRLPRPRPRPDTVPRP | 0.00533 |
| RRIRWRPPRLPRPRPRPQPMPRP | 0.145 |
| RRIRLRPPRLPRPRPRPEVNPRP | 0.0855 |
| RRIRARPPRLPRPRPRPFDYPRP | -0.245 |
| RRIRQRPPRLPRPRPRPFFYPRP | -0.257 |
| RRIRQRPPRLPRPRPRPITRPRP | 0.0297 |
| RRIRQRPPRLPRPRPRPGRDPRP | 3.85 |
| RRIRCRPPRLPRPRPRPRSLPRP | 0.197 |
| RRIRLRPPRLPRPRPRPALMPRP | 0.306 |
| RRIRLRPPRLPRPRPRPKKQPRP | -0.046 |
| RRIRKRPPRLPRPRPRPVAAPRP | 0.721 |

| Sequence | shrunken log2 fold change |
| --- | --- |
| RRIRCRPPRLPRPRPRPHRNPRP | -0.791 |
| RRIRMRPPRLPRPRPRPDADPRP | 3.36 |
| RRIRYRPPRLPRPRPRPKQQPRP | -0.0891 |
| RRIRARPPRLPRPRPRPALTPRP | 0.642 |
| RRIRLRPPRLPRPRPRPCQDPRP | 0.0219 |
| RRIRRRPPRLPRPRPRPKYVPRP | -0.194 |
| RRIRQRPPRLPRPRPRPSQRPRP | -0.523 |
| RRIRVRPPRLPRPRPRPCLWPRP | 0.0452 |
| RRIRCRPPRLPRPRPRPMFPPRP | -0.511 |
| RRIRKRPPRLPRPRPRPSVHPRP | -0.118 |
| RRIRYRPPRLPRPRPRPPNWPRP | -0.00249 |
| RRIRTRPPRLPRPRPRPKCGPRP | -0.0177 |
| RRIRRRPPRLPRPRPRPLNKPRP | 0.0514 |
| RRIRWRPPRLPRPRPRPGWSPRP | 0.221 |
| RRIRERPPRLPRPRPRPDVTPRP | 0.00636 |
| RRIRPRPPRLPRPRPRPKGHPRP | 0.106 |
| RRIRCRPPRLPRPRPRPCCVPRP | -0.409 |
| RRIRGRPPRLPRPRPRPAEWPRP | 0.542 |
| RRIRMRPPRLPRPRPRPNIPPRP | -0.207 |
| RRIRMRPPRLPRPRPRPASYPRP | 0.0757 |
| RRIRQRPPRLPRPRPRPGANPRP | 0.17 |
| RRIRQRPPRLPRPRPRPHEMPRP | -0.111 |
| RRIRFRPPRLPRPRPRPQQNPRP | 0.383 |
| RRIRCRPPRLPRPRPRPLREPRP | 0.562 |
| RRIRYRPPRLPRPRPRPGGAPRP | 0.359 |

| Sequence | shrunken log2 fold change |
| --- | --- |
| RRIRKRPPRLPRPRPRPTFLPRP | 0.228 |
| RRIRARPPRLPRPRPRPDVMPRP | 0.0669 |
| RRIRFRPPRLPRPRPRPFRYPRP | -0.151 |
| RRIRNRPPRLPRPRPRPSWFPRP | -0.398 |
| RRIRLRPPRLPRPRPRPIFCPRP | -0.314 |
| RRIRWRPPRLPRPRPRPIRQPRP | -0.0309 |
| RRIRCRPPRLPRPRPRPHYHPRP | -0.755 |
| RRIRNRPPRLPRPRPRPEQNPRP | -0.21 |
| RRIRCRPPRLPRPRPRPCIHPRP | -0.415 |
| RRIRVRPPRLPRPRPRPCRIPRP | -0.385 |
| RRIRKRPPRLPRPRPRPPNSPRP | 0.156 |
| RRIRHRPPRLPRPRPRPQHSPRP | -0.376 |
| RRIRTRPPRLPRPRPRPCCAPRP | 0.125 |
| RRIRVRPPRLPRPRPRPINLPRP | -0.304 |
| RRIRERPPRLPRPRPRPDYEPRP | -0.202 |
| RRIRQRPPRLPRPRPRPCWVPRP | -0.0437 |
| RRIRLRPPRLPRPRPRPIYKPRP | -0.489 |
| RRIRSRPPRLPRPRPRPRSFPRP | 0.124 |
| RRIRHRPPRLPRPRPRPVKEPRP | -0.00992 |
| RRIRPRPPRLPRPRPRPMCRPRP | -0.263 |
| RRIRCRPPRLPRPRPRPVMCPRP | -0.127 |
| RRIRHRPPRLPRPRPRPTQPPRP | 0.306 |
| RRIRKRPPRLPRPRPRPCGTPRP | -0.0177 |
| RRIRHRPPRLPRPRPRPHAVPRP | -0.0488 |
| RRIRMRPPRLPRPRPRPLKEPRP | 0.701 |

| Sequence | shrunken log2 fold change |
| --- | --- |
| RRIRFRPPRLPRPRPRPRQHPRP | 0.0181 |
| RRIRERPPRLPRPRPRPKTSPRP | -0.102 |
| RRIRYRPPRLPRPRPRPQCGPRP | -0.46 |
| RRIRGRPPRLPRPRPRPTKHPRP | 0.385 |
| RRIRHRPPRLPRPRPRPANDPRP | -0.0802 |
| RRIRVRPPRLPRPRPRPLTQPRP | 0.149 |
| RRIRIRPPRLPRPRPRPVPGPRP | -0.0459 |
| RRIRTRPPRLPRPRPRPMGEPRP | -0.0305 |
| RRIRGRPPRLPRPRPRPCQDPRP | -0.233 |
| RRIRGRPPRLPRPRPRPGRSPRP | 0.85 |
| RRIRTRPPRLPRPRPRPWKIPRP | -0.0703 |
| RRIRNRPPRLPRPRPRPLNVPRP | -0.0912 |
| RRIRIRPPRLPRPRPRPSGTPRP | -0.0278 |
| RRIRRRPPRLPRPRPRPMCSPRP | -0.0511 |
| RRIRERPPRLPRPRPRPQEYPRP | -0.01 |
| RRIRYRPPRLPRPRPRPANHPRP | -0.463 |
| RRIRVRPPRLPRPRPRPMFAPRP | -0.0323 |
| RRIRNRPPRLPRPRPRPPISPRP | 0.129 |
| RRIRMRPPRLPRPRPRPNPFPRP | 0.211 |
| RRIRQRPPRLPRPRPRPMKIPRP | -0.0609 |
| RRIRRRPPRLPRPRPRPAPIPRP | 0.92 |
| RRIRMRPPRLPRPRPRPVHFPRP | 0.602 |
| RRIRGRPPRLPRPRPRPATHPRP | 0.862 |
| RRIRMRPPRLPRPRPRPHRYPRP | -0.144 |
| RRIRDRPPRLPRPRPRPNKPPRP | -0.0743 |
